Assay results: article PMC6557989, “The Molecular Basis of Human IgG-Mediated Enhancement of C4b-Binding Protein Recruitment to Group A Streptococcus” (Frontiers in Immunology, 2019)

Target: T1, Protein H (Streptococcus pyogenes (strain AP1), ^125I-labelled in the plate binding assay; Alexa-488 succinimidyl ester-labelled in thermophoresis; unlabelled elsewhere)
T1 construct: Protein H, surface protein of the M protein family of Streptococcus pyogenes AP1; recombinant; theoretical mass of the monomer 42 kDa; written as the single chain because its self-association is itself measured; also called ^125I-Protein H; source: E. coli, expressed and purified (previously described protocols)
T1 chain: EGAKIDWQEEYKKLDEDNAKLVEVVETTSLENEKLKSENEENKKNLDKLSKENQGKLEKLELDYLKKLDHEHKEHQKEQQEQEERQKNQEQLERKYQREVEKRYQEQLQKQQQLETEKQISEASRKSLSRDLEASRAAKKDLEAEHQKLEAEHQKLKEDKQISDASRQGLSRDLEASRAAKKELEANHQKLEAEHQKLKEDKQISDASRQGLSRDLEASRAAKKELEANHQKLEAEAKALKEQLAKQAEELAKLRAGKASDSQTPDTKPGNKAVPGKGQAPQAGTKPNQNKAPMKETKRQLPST
Experiment: native gel or EMSA; native horizontal agarose gel, 75 mM sodium barbital pH 8.6, Coomassie blue; two proteins pre-incubated in PBS 1 h at 37°C (ratios as C4BP:IgG:Protein H 1:10:10)
Settings: both partners purified

B1: Denosumab (monoclonal human IgG2) (antibody, V domains shown)
VH: EVQLLESGGGLVQPGGSLRLSCAASGFTFSSYAMSWVRQAPGKGLEWVSGITGSGGSTYYADSVKGRFTISRDNSKNTLYLQMNSLRAEDTAVYYCAKDPGTTVIMSWFDPWGQGTLVTVSS
VL: EIVLTQSPGTLSLSPGERATLSCRASQSVRGRYLAWYQQKPGQAPRLLIYGASSRATGIPDRFSGSGSGTDFTLTISRLEPEDFAVFYCQQYGSSPRTFGQGTKVEIK
notes: constant region of the human IgG2 heavy chain; it is here the ligand of Protein H through its Fc; Recombinantly expressed drug antibody; also called hu-IgG2; source: bought: Amgen
B1: binds.
